Data reported in patent US20220096653A1, “CONJUGATE COMPRISING LIGAND AND CEACAM5 ANTIBODY FAB FRAGMENT” (ASTELLAS PHARMA INC., priority 2019, published 2022).

T1: CEACAM5 (R&D Systems, 4128-CM-050) (human, UniProt P06731 35-685)
T1 construct: Immobilised on the ELISA plate; also called human CEACAM5
T1 sequence (looked up): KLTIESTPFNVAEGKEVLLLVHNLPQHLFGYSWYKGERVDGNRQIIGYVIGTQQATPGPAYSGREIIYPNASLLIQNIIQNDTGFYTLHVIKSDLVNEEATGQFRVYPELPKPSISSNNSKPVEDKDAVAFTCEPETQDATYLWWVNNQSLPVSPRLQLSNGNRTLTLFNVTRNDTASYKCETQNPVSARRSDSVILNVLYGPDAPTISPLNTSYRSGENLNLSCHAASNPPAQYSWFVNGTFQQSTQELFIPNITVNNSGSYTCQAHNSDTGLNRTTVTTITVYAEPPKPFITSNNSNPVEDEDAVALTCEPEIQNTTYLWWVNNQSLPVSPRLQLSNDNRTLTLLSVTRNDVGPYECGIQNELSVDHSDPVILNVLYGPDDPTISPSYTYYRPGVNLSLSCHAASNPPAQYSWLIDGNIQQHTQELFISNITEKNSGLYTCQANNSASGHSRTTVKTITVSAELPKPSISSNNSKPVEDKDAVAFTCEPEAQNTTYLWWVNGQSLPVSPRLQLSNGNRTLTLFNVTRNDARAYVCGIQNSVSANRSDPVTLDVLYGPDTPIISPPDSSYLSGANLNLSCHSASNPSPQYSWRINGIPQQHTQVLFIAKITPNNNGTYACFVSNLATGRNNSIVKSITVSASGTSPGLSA


Biological target: T1, CEACAM5 (R&D Systems, 4128-CM-050)
Assay: ELISA on immobilised CEACAM5, 4-parameter fit, duplicate
Experimental: Each anti-human CEACAM5 antibody Fab fragment conjugate prepared in Example 2 was subjected to ELISA to evaluate the binding activity thereof to CEACAM5. In the present test, a phosphate buffer (Nacalai Tesque Inc., 0.1 mol/L-Phosphate Buffer Solution (pH 7.2)) prepared to 10 mM by diluting 10-fold with distilled water was used as a solvent for an antigen immobilization liquid, and 20×PBS/Tween 20 Buffer (Thermo Fisher Scientific Inc., 28352) diluted 20-fold with distilled water was used as a wash liquid. In addition, for bovine serum albumin (BSA) used in the present test, 30% Bovine Serum Albumin solution (Sigma-Aldrich, Inc., A9576-50ML) was added in an appropriate proportion for use. CEACAM5 (R&D Systems, 4128-CM-050) was diluted with a 10 mM phosphate buffer (pH 7.2) to 0.1 μg/mL, and added to a Nunc MaxiSorp White 384 plate (Nunc, 4603272) at 30 μL per well, and the plate was incubated overnight at 4° C. for immobilization. The CEACAM5 immobilization liquid was removed by reverse centrifugation, and then blocking was carried out by adding a PBS/Tween 20 buffer containing 5.0% BSA. Thereafter, the blocking solution was removed by reverse centrifugation, a solution of each CEACAM5 antibody Fab² fragment conjugate described above or a Fab² fragment having no labeling portion (PB009-01) as a control at about 10000 ng/mL was diluted in 14 steps by 3-fold dilution using a PBS/Tween 20 buffer containing 1.0% BSA, and 30 μL was added per well and incubated at room temperature for 60 minutes. The plate was washed 3 times with a PBS/Tween 20 buffer, and Horseradish Peroxidase (HRP)-labeled goat anti-human IgG (H+L chain) antibody (MBL Life Sciences, 206) diluted 1000-fold using a PBS/Tween 20 buffer containing 5.0% BSA was added at 30 μL per well and incubated at room temperature for 30 minutes. The plate was washed 3 times with a PBS/Tween 20 buffer, and ECL Prime Western Blotting DETECTION Reagent (GE Healthcare, RPN2232) as a substrate was added at 30 μL per well. The substrate was incubated at room temperature for 15 minutes, and then a signal value thereof was measured using an Envision counter (PerkinElmer, Inc.).
The test for each antibody was carried out in duplicate, and an EC₅₀ value was calculated using a 4-parameter logistic curve model.

Row | Binder | EC50
1 | (Y-S1-X)p-Fab^2 with Y Gd/DOTA, S1 spacer (m), X -Met-Gly-Lys*-Z2(#N)- (Fab, V domains shown, labeling may sit on this chain; sites not stated; labeling portion (MW 1107) on amino groups of the Fab, sites and chain not stated; 1 per Fab by MS, also called Ex-No 42; conjugate 42) VH: EVQLVESGGGLVQPGGSLRLSCAASGFNIRDTYMHWVRQAPGKGLEWVARIDPANGNSRYVPKFQGRFTISADTSRNTAYLQMNSLRAEDTAVYYCAPFGYYVSDYAMAYWGQGTLVTVSS VL: DIQLTQSPSSLSASVGDRVTITCRAGESVDIFGVGFLHWYQQKPGKAPKLLIYRASNLESGIPSRFSGSGSRTDFTLTISSLQPEDFATYYCQQTNEDPYTFGQGTKVEIKR | 0.21 nM
2 | (Y-S1-X)p-Fab^2 with Y Gd/DOTA, S1 - (bond), X -Gly-Lys*-C(═S)-NH-(1,4-Ph)-NH-C(═S)- (Fab, V domains shown, labeling may sit on this chain; sites not stated; labeling portion (MW 937) on amino groups of the Fab, sites and chain not stated; 1-2 per Fab by MS, also called Ex-No 1; conjugate 1) VH: EVQLVESGGGLVQPGGSLRLSCAASGFNIRDTYMHWVRQAPGKGLEWVARIDPANGNSRYVPKFQGRFTISADTSRNTAYLQMNSLRAEDTAVYYCAPFGYYVSDYAMAYWGQGTLVTVSS VL: DIQLTQSPSSLSASVGDRVTITCRAGESVDIFGVGFLHWYQQKPGKAPKLLIYRASNLESGIPSRFSGSGSRTDFTLTISSLQPEDFATYYCQQTNEDPYTFGQGTKVEIKR | 0.16 nM
3 | (Y-S1-X)p-Fab^2 with Y Gd/4arm-DOTA, S1 -CH2-(1,4-Ph)-NH-C(═S)-, X -Gly-(naph-Ala)-Lys*-Z2(#N)- (Fab, V domains shown, labeling may sit on this chain; sites not stated; labeling portion (MW 1187) on amino groups of the Fab, sites and chain not stated; 1-2 per Fab by MS, also called Ex-No 55; conjugate 55) VH: EVQLVESGGGLVQPGGSLRLSCAASGFNIRDTYMHWVRQAPGKGLEWVARIDPANGNSRYVPKFQGRFTISADTSRNTAYLQMNSLRAEDTAVYYCAPFGYYVSDYAMAYWGQGTLVTVSS VL: DIQLTQSPSSLSASVGDRVTITCRAGESVDIFGVGFLHWYQQKPGKAPKLLIYRASNLESGIPSRFSGSGSRTDFTLTISSLQPEDFATYYCQQTNEDPYTFGQGTKVEIKR | 0.26 nM
4 | (Y-S1-X)p-Fab^2 with Y Gd/DOTA, S1 spacer (k), X -Met-Gly-Lys*-Z2(#N)- (Fab, V domains shown, labeling may sit on this chain; sites not stated; labeling portion (MW 1296) on amino groups of the Fab, sites and chain not stated; 1-2 per Fab by MS, also called Ex-No 46; conjugate 46) VH: EVQLVESGGGLVQPGGSLRLSCAASGFNIRDTYMHWVRQAPGKGLEWVARIDPANGNSRYVPKFQGRFTISADTSRNTAYLQMNSLRAEDTAVYYCAPFGYYVSDYAMAYWGQGTLVTVSS VL: DIQLTQSPSSLSASVGDRVTITCRAGESVDIFGVGFLHWYQQKPGKAPKLLIYRASNLESGIPSRFSGSGSRTDFTLTISSLQPEDFATYYCQQTNEDPYTFGQGTKVEIKR | 0.22 nM
5 | (Y-S1-X)p-Fab^2 with Y Gd/4arm-DOTA, S1 -CH2-(1,4-Ph)-NH-C(═S)-, X -Met-Gly-Lys*-Z2(#N)- (Fab, V domains shown, labeling may sit on this chain; sites not stated; labeling portion (MW 1121) on amino groups of the Fab, sites and chain not stated; 1 per Fab by MS, also called Ex-No 54; conjugate 54) VH: EVQLVESGGGLVQPGGSLRLSCAASGFNIRDTYMHWVRQAPGKGLEWVARIDPANGNSRYVPKFQGRFTISADTSRNTAYLQMNSLRAEDTAVYYCAPFGYYVSDYAMAYWGQGTLVTVSS VL: DIQLTQSPSSLSASVGDRVTITCRAGESVDIFGVGFLHWYQQKPGKAPKLLIYRASNLESGIPSRFSGSGSRTDFTLTISSLQPEDFATYYCQQTNEDPYTFGQGTKVEIKR | 0.23 nM
6 | (Y-S1-X)p-Fab^2 with Y Gd/DOTA, S1 spacer (h), X -Met-Gly-Lys*-Z2(#N)- (Fab, V domains shown, labeling may sit on this chain; sites not stated; labeling portion (MW 1090) on amino groups of the Fab, sites and chain not stated; 1-2 per Fab by MS, also called Ex-No 43; conjugate 43) VH: EVQLVESGGGLVQPGGSLRLSCAASGFNIRDTYMHWVRQAPGKGLEWVARIDPANGNSRYVPKFQGRFTISADTSRNTAYLQMNSLRAEDTAVYYCAPFGYYVSDYAMAYWGQGTLVTVSS VL: DIQLTQSPSSLSASVGDRVTITCRAGESVDIFGVGFLHWYQQKPGKAPKLLIYRASNLESGIPSRFSGSGSRTDFTLTISSLQPEDFATYYCQQTNEDPYTFGQGTKVEIKR | 0.23 nM
7 | (Y-S1-X)p-Fab^2 with Y Gd/4arm-DOTA, S1 -CH2-(1,4-Ph)-NH-C(═S)-, X -Gly-Tyr-Lys*-Z2(#N)- (Fab, V domains shown, labeling may sit on this chain; sites not stated; labeling portion (MW 1153) on amino groups of the Fab, sites and chain not stated; 1-2 per Fab by MS, also called Ex-No 56; conjugate 56) VH: EVQLVESGGGLVQPGGSLRLSCAASGFNIRDTYMHWVRQAPGKGLEWVARIDPANGNSRYVPKFQGRFTISADTSRNTAYLQMNSLRAEDTAVYYCAPFGYYVSDYAMAYWGQGTLVTVSS VL: DIQLTQSPSSLSASVGDRVTITCRAGESVDIFGVGFLHWYQQKPGKAPKLLIYRASNLESGIPSRFSGSGSRTDFTLTISSLQPEDFATYYCQQTNEDPYTFGQGTKVEIKR | 0.26 nM
8 | [Gd/4arm-DOTA-CH2-(1,4-Ph)-NH-C(═S)-NH-CH2-(1,3-Ph)-C(═O)-Met-Gly-Lys*-Z2(#S)]p-Fab^2 (Fab, V domains shown, labeling may sit on this chain; sites not stated; labeling portion (MW 1355) bound via 2-iminothiolane-treated amino groups of the Fab, sites and chain not stated; 1-2 per Fab by MS, also called Ex-No 40; Conjugate No. 40) VH: EVQLVESGGGLVQPGGSLRLSCAASGFNIRDTYMHWVRQAPGKGLEWVARIDPANGNSRYVPKFQGRFTISADTSRNTAYLQMNSLRAEDTAVYYCAPFGYYVSDYAMAYWGQGTLVTVSS VL: DIQLTQSPSSLSASVGDRVTITCRAGESVDIFGVGFLHWYQQKPGKAPKLLIYRASNLESGIPSRFSGSGSRTDFTLTISSLQPEDFATYYCQQTNEDPYTFGQGTKVEIKR | 0.22 nM
